Assay [1] deals with recombinant human 37 kDa laminin receptor precursor (37LRP) (human) (UniProt P08865). The assay is described as follows: SPR. A general note: In SPR one partner is held on a chip, and binding of the other changes the refractive index at the surface.
Assay [2] addresses native 67 kDa laminin receptor (67LR) shed from T47D cells (human (endogenous in T47D)) (UniProt P08865). Kind of assay: SPR.

In the case of human laminin (complex), the figures for the Kd in assay [1] and in assay [2] were 410 nM and 320 nM, respectively.

By Kd is commonly meant the concentration at which binding is half-saturated.

The record behind these values is PMC2782360.
